B1: A12嵌合抗体 (antibody, human IgG1, kappa, V domains shown)
VH: QVQLQQSGPELVKPGASVRMSCKAAGYTITSYLMHWVKQRPGQDLEWIGYINPYNDGTKYNEKFKDKATLTSDKSSSTAYMELSSLTSEDSAVYYCARSDVYYGVRFAYWGQGTLVTVSA
VL: DIVLTQSPAIMSASPGEKVTMTCSASSSVSYMHWYQQKSGTSPKRWIYDTSKLASGVPARFSGSGSGTSYSLTISSMEAEDAAIYYCQQWSSNPPTFGAGTKLELKR
notes: Chimeric antibody expressed in 293F cells and purified on Protein A; also called A12抗体; ROR2-A12
B2: B30嵌合抗体 (antibody, human IgG1, kappa, V domains shown)
VH: B1 VH with I29F, M34I
VL: DIVLTQSPVIMSASPGEKVTMTCSASSSISYMYWYQQKPGSSPRLLIYDTSILASGVPVRFSGSGSGTSYSLTISRMEAEDAATYYCQQWSSYPFTFGSGTKLEIKR
notes: Chimeric antibody expressed in 293F cells and purified on Protein A; also called B30抗体; ROR2-B30
B3: B22嵌合抗体 (antibody, human IgG1, kappa, V domains shown)
VH: QVQLQQPGAALVKPGASVKLSCKASGYTFTNYWIQWMKQRPGQGLEWIGEINPSNGRTDYNEKFKNRATLTVDNSSTTAYMQLSSLTSEDSAVYYCANYRPGYWGQGTSVTVSS
VL: DIVMTQSQKFMSTSVGDRVSVTCKASQNVGTNVAWFQQKPGQSPKPLIYLASYRYSGVPDRFTGSGSGTDFTLTISNVQSEDLAEYFCQQYNSYPLTFGGGTNLEIKR
notes: Chimeric antibody expressed in 293F cells and purified on Protein A; also called B22抗体; SA120-2

Numbering of substitutions follows the chain as printed.

T3 sequence (Q01974 34-403): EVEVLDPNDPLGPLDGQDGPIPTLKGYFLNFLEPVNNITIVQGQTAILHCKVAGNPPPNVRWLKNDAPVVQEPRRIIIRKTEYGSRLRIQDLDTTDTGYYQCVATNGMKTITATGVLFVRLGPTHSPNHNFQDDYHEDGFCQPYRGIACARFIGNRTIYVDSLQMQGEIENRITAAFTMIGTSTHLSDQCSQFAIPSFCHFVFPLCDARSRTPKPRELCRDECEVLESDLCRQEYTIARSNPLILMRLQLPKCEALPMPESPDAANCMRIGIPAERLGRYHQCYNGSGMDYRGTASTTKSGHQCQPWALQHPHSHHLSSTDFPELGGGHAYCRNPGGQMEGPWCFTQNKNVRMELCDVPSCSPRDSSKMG
T1 sequence (Q01974 34-943 limits assumed): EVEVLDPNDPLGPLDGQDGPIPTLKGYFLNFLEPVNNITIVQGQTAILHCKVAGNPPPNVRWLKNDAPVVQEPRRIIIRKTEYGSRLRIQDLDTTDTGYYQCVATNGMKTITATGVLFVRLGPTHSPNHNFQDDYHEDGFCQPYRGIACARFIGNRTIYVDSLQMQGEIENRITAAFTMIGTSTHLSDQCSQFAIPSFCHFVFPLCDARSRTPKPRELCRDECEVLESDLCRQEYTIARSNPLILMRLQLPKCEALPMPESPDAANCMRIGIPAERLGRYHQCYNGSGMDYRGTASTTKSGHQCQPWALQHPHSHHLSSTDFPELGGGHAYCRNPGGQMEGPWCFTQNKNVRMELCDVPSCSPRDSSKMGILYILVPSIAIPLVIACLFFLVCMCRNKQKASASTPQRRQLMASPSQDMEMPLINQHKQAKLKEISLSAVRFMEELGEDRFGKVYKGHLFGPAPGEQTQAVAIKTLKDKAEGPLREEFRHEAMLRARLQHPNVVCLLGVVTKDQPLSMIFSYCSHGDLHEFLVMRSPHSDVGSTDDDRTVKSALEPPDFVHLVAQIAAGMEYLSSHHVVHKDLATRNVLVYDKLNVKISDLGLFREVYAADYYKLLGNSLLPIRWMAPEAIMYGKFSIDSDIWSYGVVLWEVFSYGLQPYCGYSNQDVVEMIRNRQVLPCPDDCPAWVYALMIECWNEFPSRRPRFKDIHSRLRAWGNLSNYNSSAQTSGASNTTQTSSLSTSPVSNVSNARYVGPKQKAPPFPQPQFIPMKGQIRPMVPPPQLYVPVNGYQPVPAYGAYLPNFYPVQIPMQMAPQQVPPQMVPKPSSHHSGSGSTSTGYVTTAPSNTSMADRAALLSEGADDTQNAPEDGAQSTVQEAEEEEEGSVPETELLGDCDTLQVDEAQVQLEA

One assay concerns the target T1, ROR2膜蛋白 (UniProt Q01974 34-943, limits assumed).
T1 construct: whole, on cells; Endogenous ROR2 of T47D cells and of cells from human patients; also called ROR2 on T47D cells; ROR2 on patient blood cancer cells and lymphoma PDX tumour cells
Briefly: flow cytometry on T47D cells (ROR2 positive) against 231 cells (ROR2 negative), 10ug/ml. A general note: A flow cytometer gives signals particle by particle.
Regarding B1, the binding result is on record as “binds”.

Take B2: the binding result is “binds”.

Take B3: the binding result is reported as “binds”.

For another assay, the target named is T2, 内源性的ROR2 (293T细胞) (UniProt Q01974 34-943).
T2 construct: Whole endogenous protein in cell lysate, used for immunoprecipitation; also called endogenous ROR2 protein of ROR2-positive 293T cells
T2 sequence (Q01974 34-943 limits assumed): as above
Briefly: immunoprecipitation from 293T cell lysate, blot with Santa Cruz ROR2 antibody sc-374174.
As to B1, the binding result is “binds”.

For B2, the binding result was “binds”.

In the case of B3, the binding result was “binds”.

The next assay addresses T3, 带有His标签的人源的ROR2胞外端 (human, UniProt Q01974 34-403).
T3 construct: extracellular domain; Denatured cell lysate in an immunoblot; it is put last only for want of a statement; also called human ROR2ex; humanROR2ex; not shown: His tag
Nature of the assay: immunoblot, lysate of 293T-ROR2-KO cells transfected with His-tagged human ROR2ex, 5ug/ml. On the technique in general: Immunoblotting shows a protein as a band on a membrane.
As for B1, the binding result was “binds”.

On to B2, for which the binding result is “binds”.

Turning to B3, the binding result is given as “binds”.

(Values after patent CN111378040A (UNIV SHENZHEN, dated 2020).)
